According to article doi:10.1101/2020.02.12.945170 (2020):
Square brackets hold non-standard residues; d marks the D form. Ends that are not written are not given here. * marks the point of attachment. Biotin = O=C1N[C@H]2[C@H](CS[C@H]2CCCCC(=O)*)N1; pY = N[C@@H](Cc1ccc(OP(=O)(O)O)cc1)C(=O)O

B1: ITAM3 C (C-monophosphorylated CD3ζ ITAM3 peptide) (peptide)
peptide: Biotin-GKGHDLLYQGLSTATKDT[pY]DALHMQ
B2: ITAM3 N (N-monophosphorylated CD3ζ ITAM3 peptide) (peptide)
peptide: Biotin-GKGHDLL[pY]QGLSTATKDTYDALHMQ
B3: ZAP70 tSH2-GFP (tandem SH2 domains of human ZAP70, amino acids 1-264, with C-terminal GFP) (domain or fragment)
chain: MPDPAAHLPFFYGSISRAEAEEHLKLAGMADGLFLLRQCLRSLGGYVLSLVHDVRFHHFPIERQLNGTYAIAGGKAHCGPAELCEFYSRDPDGLPCNLRKPCNRPSGLEPQPGVFDCLRDAMVRDYVRQTWKLEGEALEQAIISQAPQVEKLIATTAHERMPWYHSSLTREEAERKLYSGAQTDGKFLLRPRKEQGTYALSLIYGKTVYHYLISQDKAGKYCIPEGTKFDTLWQLVEYLKLKADGLIYCLKEACPNSSASNASG

Legend:
[1] = biological target: B3; experiment: SPR
[2] = biological target: B3; experiment: SPR; 37°C
[3] = biological target: B3; experiment: SPR
[4] = biological target: B3; experiment: SPR; 37°C
[5] = biological target: B3; experiment: single-particle tracking TIRF
[6] = biological target: T1, Avi-CD3ζ ITAM3 (full intracellular tail of CD3ζ, amino acids 52-164, all tyrosines mutated to Ala except the … (UniProt P20963-1 52-164, biotin on the Avitag; tyrosines of ITAM3 phosphorylated in vitro by Lck); experiment: SPR; phosphorylated on ITAM3; dissociation phase fit
T1 sequence (P20963 52-164, change not shown): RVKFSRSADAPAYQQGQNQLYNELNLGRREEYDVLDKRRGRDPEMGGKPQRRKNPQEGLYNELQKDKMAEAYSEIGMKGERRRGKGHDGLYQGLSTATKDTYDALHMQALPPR

[7] = biological target: T1, Avi-CD3ζ ITAM3 (full intracellular tail …); experiment: SPR; phosphorylated on ITAM3; from kobs plot intercept

Kd [1] [µM] | Kd [2] [µM] | koff [3] [s⁻¹] | koff [4] [s⁻¹] | koff [5] [s⁻¹] | koff [6] [s⁻¹] | koff [7] [s⁻¹] | Binder
7.52 | 7.52 |  |  |  |  |  | B1
20.7 | 20.7 | 5.5 | 5.5 | 4.8 |  |  | B2
 |  |  |  |  | 0.25 | 0.21 | B3
